# Values quoted from earlier work as cited in paper PMC6136702.
# Target: EGFR (Homo sapiens) (UniProt P00533)
substance,measurement,value
EGF (from UniProt P01133),Kd,0.2 nM
